# Measured values reported in the nanobody polyreactivity screen of Harvey et al. (2022).
# Assay: yeast display, Sf9 membrane polyspecificity reagent, FACS + sequencing; frameworks hold sequencing errors
# Method in brief: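 Galactose-induced (36–48 hours) yeast carrying a synthetic nanobody display library were exposed to 10% biotinylated, detergent-solubilized Sf9 membrane reagent at 4 °C for 1 hour. FACS followed streptavidin microbead enrichment, using low and high (top ~1%) gates for expression (anti-HA) and reagent binding (streptavidin). Colony PCR, MiSeq 2 × 250 sequencing and CDR-length filtering followed. Labels for polyreactivity reflect the gate of origin.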
row,Sequence,polyreactivity (PSR sort gate)
1,QVQLVESGGGLVQAGGSQRLSCAASGRIFRYYAMGWYRQAPGKERELVAAITWSGGSTYYADSVKGRFTISRDNEKNTVYLQMNSLKPDDTAVYYCTAISYQPFHGDYWGQGTQVTVSS,low polyreactivity
2,QVQLVESGGGLVQAGGSRRIICAASGSIFGYYAMGWYRQAPGKEREFVAAISGRGSSTYYADSVKGRFTISRDNAQNTVYLQMNSLKPEDTAVYYCARVTYKHYGYWGQGTQVTVSS,high polyreactivity
3,QVQLVESGGGLVQAGGSRRISCAASGIIFTLYVMGWYRQAPGTERELVAAIRSGGSTYYADSVKGRVTISRDNAKNTVYLQMNSLKPEDTAVYYCAARVRSGTGVGFDYWGQGTQVTVSS,high polyreactivity
4,QVQLVESGGGLVQAGGSRRLICAASGSIFGWYAMGWYRPAHGKERELVAAISQSGGRTYYADSVKGRFTISRDNAKNTVYLQMNSLKPEDTAVYYCAAYYTSYWGYDYDYWGQGTQVTVSS,low polyreactivity
5,QVQLVESGGGLVQAGGSRRLSCAASGLIFVRYAMGWYRQAPGKERELVATISSRGASTYYADSVKGRFTISRDNAKNTVYFQMNSLKPEDTAVYYCNAGRLRRSYKPYDYWGQGTQVTVSS,high polyreactivity
6,QVQLVESGGGLVQAGGSRRLSCAASGLIMDYYAMGWYRQAPGKERELVAAISSGGTDTYYADSVKGRFTITRDNAKNTVYLQMNSLKPEDTAVYYCAADSYWSAYDYWGQGTQVTVSS,low polyreactivity
7,QVQLVESGGGLVQAGGSRRLSCAASGSTFYGYAMGWYRQAPGKEREFVAAITTSGGSTYYADSVKGRFTISRDNAKNTVYLQMNSLKPEDTAVYYCAADGFYYDDGYWGQGTQVTVSS,low polyreactivity
8,QVQLVESGGGLVQAGGSRRVSCAASGCIFGYNDMGWSRQAPGKDRELDASITWGGGRTRYADSVKGRFTISRDNAKNTVDLHMNSLKPEDTAVYYGAADKRSYSYVRPPRNQEDYWGQGTQVTVSS,low polyreactivity
9,QVQLVESGGGLVQAGGSRSLSCAASGSILWYYAMGWYRQAPGKERELVADITARGVGTYYADSVKGRFTISRDNAKNTVYLQMNSLKPEDTAVYYCNVETYSFYTLYVTYDYWGQGTQVTVSS,low polyreactivity
10,QVQLVESGGGLVQAGGSVRLSCAASGFIFTDNAMGWYRQPPLKERELVAAINLSGTRTYYADSVKGRFTISLDNAKNTVSLQMNSLKPEDTAVYYCNISEDYSYEYWGQGTQVTVSS,low polyreactivity
11,QVQLVESGGGLVQAGGSVRLSCAASGFIFYDYVMGWYRQAPGKERELVAAISASGGSTYYADSVKGRFTISRDYAKNTVYLQMNSLKPEDTAVYYCAAPRYYYYWRDYWGQGTQVTVSS,high polyreactivity
12,QVQLVESGGGLVQAGGSVRLSCAASGLIFTIYAMGWYRQAPGKERELVAVITWSGGSTYYADSVKGRFTISRDNAKNTVYLQMYSLKPEDTAVYYCAVEWAYPYWYTYYLEDYWGQGTQVTVSS,low polyreactivity
13,QVQLVESGGGLVQAGGSVRLSCAASGRIFSRKAMRWYIQAPGKERELVAAISRSGTSTYYADSVKGRFTISRDNAKNTVYLQMNSLKPEDNAVYYCAADYPAVISIRRYDYWGQGTQVTVSS,low polyreactivity
14,QVQLVESGGGLVQAGGTLLLSGAASGSIFGYNAMGWYRQAPGKERELVAAIRSSDSRTHYADSVKGRFRISRDNAKNTVYLQMNSLKPEDTAVYYCAAVKRRPGHYLYDYWGQGTQVTVSS,low polyreactivity
15,QVQLVESGGGLVQAGGTLRISCAASGRTFRKYAMGWYRQAPGKERELVAAISWSGGSTYYANSVKGRFTISRDNAKNTVYLQMNSLKPEDTAVYYCAAVPVHTGSLYWGFTTGYDYWGQGTQVTVSS,low polyreactivity
16,QVQLVESGGGLVQAGGTLRLSCAACGFTFSSYAMGWYRQAPGKERELVAAITYRGGSTYYADSVKGRFTISRDNAMNNVYLQMNSLKPEDTAVYYCAARWGYRMYWGQGTQVTVSS,high polyreactivity
17,QVQLVESGGGLVQAGGTLRLSCAACGSTYYRNAMGWYRPAPGKERELVATITRSGGSTYYADSVKGRFTISRDNAKNTVYLQMNSLKPEDTAVYYCAARGWYKSDYWGQGTQVTVSS,low polyreactivity
18,QVQLVESGGGLVQAGGTLRLSCAASGFIIPGYAMGCYRQAPGKERELVAAISGRGGSTYYADSVKGRFTISRDNAKNTVYLQMNSLKPEDTAVYYCNADWQDDLAGYDVDYWGQGTQVTVSS,low polyreactivity
19,QVQLVESGGGLVQAGGTLRLSCAASGFTFFSNAMGWYRQPPGKERELVAAIPTNGGSTYYADSVKGRFTISRDNAMNTVYLQMNSLKPEDTALYYCAAEYTVGGPYSYDFWGQGTQVTVSS,low polyreactivity
20,QVQLVESGGGLVQAGGTLRLSCAASGIIFYSNAMGWYRQAPGKEWELVAGISKSGGSTYYADSVKGRFTISRDNAKNNVYLHMNSLKPEDTAVYYCAVRGGGRYRSWGYDYWGQGTQVTVSS,high polyreactivity
21,QVQLVESGGGLVQAGGTLRLSCAASGIIIGSYAMGWYRQAPGKERELVAAITNGARTNYADSVKGRFTISRDNAKNTVYLQMNSLKPEDTAVYYCAADNYFDWYWLFFEYDYWGQGTQVTVSS,high polyreactivity
22,QVQLVESGGGLVQAGGTLRLSCAASGRIFDGNTMGWDRQAPGKERELVAAIRSRGDRTYYADSVKGRFTISRDNAKNTVYLQMNSLKPEDTAVYYCAAQPSWYKPKGSWFEKGLYDYWGQGTQVTVSS,low polyreactivity

row,Sequence,polyreactivity (PSR sort gate)
1,QVQLVESGGGLVQAGGTLRLSCAASGRIFSGYVMGWYRPAPGKERELVAVISRSGGSTYYADSVKGRFTISRDNAKNTVYLQMNSLKPEDTAVDYCAAKHIDGSRGYDYWGQGTQVTVSS,low polyreactivity
2,QVQLVESGGGLVQAGGTLRLSCAASGRIFSKNAMGWYRQAPGKERELVAAMSSSGTSTYYADSVKGRFTISRDNAKNTVYLQINSLKPEDTAVYYCAARVSLTTYSYYSWGQGTQLTVSS,high polyreactivity
3,QVQLVESGGGLVQAGGTLRLSCAASGRIFWAYAMGRYRQAPGKERELVAAITRSGGYTRYADSVKGRFTISRDNAKNTVYLLMNSLKPEDTAVYYCNAYAPRQLYGYDYWGQGSQVTVSS,high polyreactivity
4,QVQLVESGGGLVQAGGTLRLSCAASGRTFNYAMGWYRQAPGKERELVATITSGGSTNYADSVKGRFTISRDNAKNTVYLQLNSLKPEDTAVYYCNRDIPPGNYYKALYYYWGQGTQVTVSS,low polyreactivity
5,QVQLVESGGGLVQAGGTLRLSCAASGRTFYYYTMGWYRQAPGKERDLVAAISSTGNTYYADSVKGRFTISRDNAKNSVYLQMNSLNPADTALYYCAASGGSSDAYWGQGTQVTVSS,high polyreactivity
6,QVQLVESGGGLVQAGGTLRLSCAASGSIFARYAMGCSIQAPGKERELVAAISGSGASTYYADSVKGRFTISRDNAKNTVYLQMNSLKPEDTAVYYCARPFLRRPTYRFETGYGYWGQGTQVTVSS,high polyreactivity
7,QVQLVESGGGLVQAGGTLRLSCAASGSIFPYYVMGWYRQAPGKERELVAAISTSDGSTYADSVKGRFTISRDNAKNTVYFQMNSLKPEDTAVYYCAVANVYYEGYDYWGQGTQVTVSS,low polyreactivity
8,QVQLVESGGGLVQAGGTLRLSCAASGSTFAVNAMGWYRQPPGKERELVAAISRSGGSTYYADSVKGRFTISRDNAKNTDYLQMKSLKPEDTAFYYCNTRTPYWFKSDYWGQGTQVTVSS,low polyreactivity
9,QVQLVESGGGLVQAGGTLRLSCAASGSTFRGYAMGWYRQAPGKERELVAAIRRAGSTNYAESVKGRFTISRDNAKNTVYLQMNSLKPEDTAVYYFADSKCLWYGASVSQKKAGMDSWGQGTQVTVSS,low polyreactivity
10,QVQLVESGGGLVQAGGTLRLSCAASGSTFRYYAMGWYRQAPGKERELVATITSDGSTNYADSVKGRFTFSRDNAKNTVYLQLNSLKPEDTAVYYCNARCRRYKSSNSWGQGTQVTVSS,high polyreactivity
11,QVQLVESGGGLVQAGGTLRLSCAASGSTFVGYAMGWYRQAPGKERELVAAISSSGSTNYADSVKGRFTISRDNAKNTVYLQMNSLKPEDTAVYYCAALYSYFWLIIDYGYWGQGTQVTVSS,low polyreactivity
12,QVQLVESGGGLVQAGGTLRLSCAASGSTLYPYDMGWYRQAPGKERELVAAIDSGGSTNYADSVKGRFTISRDNAKNTVYLQMNRLKPEDTAVYYCAADASGENDYWGQGTQVTVSS,low polyreactivity
13,QVQLVESGGGLVQAGGTLRLSCAASGYTSSLNAMRWYRQAPGKERELVARITTDGTSTYYADSVKGRFTISRDNAKNTVYLQMNSLKPEDTAVYYCNARYPAYGVRSWYPYAYYYWGQGTQVTVSS,low polyreactivity
14,QVQLVESGGGLVQAGGTLRLSCADSGSTFTYNAMGWYRQAPGKERELVASISSGTTTYYADSVKGRFTISRDNAKNTVYLQMNSLKPEDTAVYYCAVDSWSRVQGWLAHNYDYWGQGTQVTVSS,low polyreactivity
15,QVQLVESGGGLVQAGGTLRLSCAPSGRTFKRYAMGWYRQAPGKERELVAAISSGGSTYADSVKGRFTISRDNAKNTVYLHMNSLKTEDTAVYYCAARYRSYPERYNYWGQGTQGTVSS,high polyreactivity
16,QVQLVESGGGLVQAGGTLRLSCAPSGSTFVPNAMGWYRQAPGKERELVATITSSSSRTYYADSVKGRFTISRDNAKNTVYLQMNSLKPEDTAVYYCAADGRRVVARYDYWGQGTQVTVSS,high polyreactivity
17,QVQLVESGGGLVQAGGTLRLSCDASGSIFFWKAMGWYRQAPGKERELVAAISYTDGSTYYADSVKGRFTIPRDNAKNTVYLLMNSLKPEDTAVYYCAAAITPSYNGSEYDYWGQGTQVTVSS,low polyreactivity
18,QVQLVESGGGLVQAGGTLRLSCSASGSIFGIYAMGGYRHAPGKESELVAAITSGGSTYADSVKGRFTISRDNAKNTVYLQMNSLKPVDTAVYFCAAYGRDIGGYDYWGQGSQVTVSS,low polyreactivity
19,QVQLVESGGGLVQAGGTLRLSSAPTGSNFSAYAKGWYREAPGKERELVAAISTSGYTNYADSVKGRFTISRDKALNTVYLQMNSLKPEDTAVSYCAADRDYGDGTAGYGYEFDYWGQGTQVTVSS,low polyreactivity
20,QVQLVESGGGLVQAGGTLRLTCAASGTFYGNNMGWYIHAPGKQRELVATIRRSTGSTYYADSVKGRFTISRDNAKNTVYLQMNSLKPEDTAVYYCAAEIYSYYRLYWYDYRGQGTQVTVSS,high polyreactivity
21,QVQLVESGGGLVQAGGTLSLSCAATGRNFYCYAMGWYRQAHGKERELVAAINWSGGTTYYADSVKGRFTISRDNAKNTVYLQMNSLKPEDTAVYYSAADRILEMGYWGQGTQVTVSS,low polyreactivity
